Measurements: patent publication US20230106715A1 (BIOSION, published 2023)
Like-named read-outs stand apart in the source and are kept apart here.

Key:
[1] = biological target: T1, human Siglec15 on human-siglec15-2D3-1E1 cells (human, UniProt Q6ZMC9 20-328); assay: cell based binding FACS on human-siglec15-2D3-1E1 cells
T1 construct: whole, on cells; Transfected HEK-293 cells; also called cell surface human Siglec15
T1 sequence (looked up): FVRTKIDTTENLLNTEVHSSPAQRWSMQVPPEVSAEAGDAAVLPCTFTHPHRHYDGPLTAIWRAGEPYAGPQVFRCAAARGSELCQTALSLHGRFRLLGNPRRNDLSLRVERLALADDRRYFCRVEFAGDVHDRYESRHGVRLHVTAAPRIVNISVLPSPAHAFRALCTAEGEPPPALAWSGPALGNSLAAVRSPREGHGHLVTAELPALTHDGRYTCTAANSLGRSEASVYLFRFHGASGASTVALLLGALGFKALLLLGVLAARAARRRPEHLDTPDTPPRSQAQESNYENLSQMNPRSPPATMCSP
Method: (§1) The binding activities of the anti-Siglec15 antibodies to cell surface Siglec15 were tested by flow cytometry (FACS), using in-house prepared human-siglec15-2D3-1E1 cells expressing human Siglec15 (amino acid residues Met1-Pro328 of uniprot #Q6ZMC9) on cell membranes. The human-siglec15-2D3-1E1 cells were prepared by transfecting HEK-293 cells (ATCC #CRL-1573) with pCMV-T-P plasmids inserted with human Siglec15 coding sequence between EcoRI and XbaI sites, following the instruction of lipofectamine 3000 transfection reagent (Thermo Fisher). The human-siglec15-2D3-1E1 cells were harvested from cell culture flasks, washed twice and re-suspended in phosphate buffered saline (PBS) containing 2% v/v Fetal Bovine Serum (FACS buffer). 2×10⁵ cells per well in 96 well-plates were incubated in 100 μL serially diluted anti-Siglec15 antibodies or controls (starting at 66.67 nM, 5-fold serial dilution) in FACS buffer for 40 minutes on ice. […] Following a 40-minute incubation at 4° C. in dark, cells were washed three times and re-suspended in FACS buffer. Fluorescence was measured using a Becton Dickinson FACS Canto II-HTS equipment. Data was analyzed using Graphpad Prism software and EC₅₀ values were reported.

[2] = biological target: T2, recombinant human Siglec15-his protein (human, UniProt Q6ZMC9 20-263); assay: capture ELISA, captured antibody, biotin-labeled human Siglec15-his in solution
T2 construct: In house made; Biotin-labeled in the capture ELISA
T2 sequence: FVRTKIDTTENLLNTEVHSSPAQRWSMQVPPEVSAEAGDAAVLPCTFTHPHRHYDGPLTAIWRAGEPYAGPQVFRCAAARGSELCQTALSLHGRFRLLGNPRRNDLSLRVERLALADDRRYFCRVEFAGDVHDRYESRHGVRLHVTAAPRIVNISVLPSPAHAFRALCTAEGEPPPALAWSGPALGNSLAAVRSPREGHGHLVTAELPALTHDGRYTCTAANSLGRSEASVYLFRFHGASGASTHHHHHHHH
Method: Briefly, 96-well plates were coated with 100 μl of 2 μg/ml AffiniPure Goat Anti-Human IgG F(ab′)₂ fragment specific (Jackson Immuno Research, Cat #109-005-097) in PBS for 2 hours at 37° C. Plates were washed once with wash buffer (PBS+0.05% v/v Tween-20, PBST) and then blocked with 200 μl blocking buffer (5% w/v non-fatty milk in PBST) overnight at 4° C. Plates were washed 4 times and respectively incubated with 100 μl serially diluted anti-Siglec15 antibodies of the disclosure, the benchmark and hIgG (human immunoglobulin (pH4) for intravenous injection, Hualan Biological Engineering Inc.), 5-fold dilution in 2.5% w/v non-fatty milk in PBST starting at 66.7 nM, for 40 minutes at 37° C., and then washed 4 times again. […] The reaction was stopped in 4 minutes at room temperature with 50 μl/well 1M H₂SO₄, and the absorbance of each well was read on a microplate reader using dual wavelength mode with 450 nm for TMB and 630 nm as the reference wavelength, then the OD (450-630) values were plotted against antibody concentration. Data was analyzed using Graphpad Prism software and EC₅₀ values were reported.

[3] = biological target: T1, human Siglec15 on …; assay: cell based binding FACS on human-siglec15-2D3-1E1 cells; remark: listed apart in the source
Method: as §1

[4] = biological target: T2, recombinant human Siglec15-his protein; assay: capture ELISA, captured antibody, biotin-labeled human Siglec15-his in solution; remark: listed apart in the source
Method: Briefly, 96-well plates were coated with 100 μl of 2 μg/ml AffiniPure Goat Anti-Human IgG F(ab′)₂ fragment specific (Jackson Immuno Research, Cat #109-005-097) in PBS for 2 hours at 37° C. Plates were washed once with wash buffer (PBS+0.05% v/v Tween-20, PBST) and then blocked with 200 μl blocking buffer (5% w/v non-fatty milk in PBST) overnight at 4° C. Plates were washed 4 times and respectively incubated with 100 μl serially diluted anti-Siglec15 antibodies of the disclosure, the benchmark and hIgG (human immunoglobulin (pH4) for intravenous injection, Hualan Biological Engineering Inc.), 5-fold dilution in 2.5% w/v non-fatty milk in PBST starting at 66.7 nM, for 40 minutes at 37° C., and then washed 4 times again. Plates containing captured antibodies were incubated with 100 μl biotin-labeled human Siglec15-his protein (in house made with SEQ ID NO: 20, 145 ng/ml in 2.5% w/v non-fatty milk in PBST) for 40 minutes at 37° C., washed 4 times, and incubated with streptavidin conjugated HRP (1:10000 dilution in PBST, Jackson Immuno Research, Cat #016-030-084, 100 μl/well) for 40 minutes at 37° C. After a final wash, plates were incubated with 100 μl/well ELISA substrate TMB (Innoreagents, Cat #TMB-S-002). The reaction was stopped in 4 minutes at room temperature with 50 μl/well 1M H₂SO₄, and the absorbance of each well was read on a microplate reader using dual wavelength mode with 450 nm for TMB and 630 nm as the reference wavelength, then the OD (450-630) values were plotted against antibody concentration. Data was analyzed using Graphpad Prism software and EC₅₀ values were reported.

[5] = biological target: T3, human Siglec15-Fc protein (human); assay: competitive ELISA: biotin-labeled human Siglec15-Fc in solution, competitor coated benchmark
T3 construct: In house made; also called recombinant human Siglec15 protein with human IgG1 Fc at the C-terminus
Method: The abilities of the anti-Siglec15 antibodies of the disclosure to block benchmark-human Siglec15 binding were measured in a competitive ELISA assay. Briefly, the benchmark was coated on 96-well micro plates at 2 μg/mL in PBS, 100 μl per well, and incubated for 2 hours at 37° C. Then plates were washed once with wash buffer, and blocked with 5% w/v non-fatty milk in PBST overnight at 4° C. The next day, the anti-Siglec15 antibodies of the disclosure or controls were diluted with biotin labeled human Siglec15-Fc protein (prepared in-house with SEQ ID NO: 19, 37 ng/ml in PBST with 2.5% w/v non-fatty milk), starting at 80 nM with a 4-fold serial dilution, and incubated at room temperature for 40 minutes. After plate washing 4 times, the antibody/Siglec15-Fc mixtures were added to benchmark coated plates, 100 μl per well. After incubation at 37° C. for 40 minutes, plates were washed 4 times again using wash buffer. Then the plates were added and incubated with 100 μl/well streptavidin conjugated HRP for 40 minutes at 37° C. […] Finally, TMB was added and the reaction was stopped using 1M H₂SO₄, and the absorbance of each well was read on a microplate reader using dual wavelength mode with 450 nm for TMB and 630 nm as the reference wavelength, then the OD (450-630) values were plotted against antibody concentration. Data was analyzed using Graphpad Prism software and IC₅₀ values were reported.

[6] = biological target: T1, human Siglec15 on …; assay: cell based binding FACS on human-siglec15-2D3-1E1 cells; remark: listed apart in the source
Method: as §1

B1: anti-Siglec15 benchmark (ch5G12) (antibody, human IgG1, kappa, V domains shown)
VH: QVQLQQPGAELVKPGASVKMSCKASGYTFTSYWITWVIQRPGQGLEWIGDIYCGSDTMHYNEKFKNKATLTVDTSSSTAYMQLSSLTSEDSAVYYCARWWDYGSSYDYFDYWGQGTTLTVSS
VL: DIKMTQSPSSMYASLGERVTITCKASQDINSYLSWFQQKPGKSPKTLIYRANRLVDGVPSRFSGSGSGQDYSLTISSLEYEDMGIYYCLQYDEFPYTFGGGTKLEIKR
notes: ch5G12 (US 20190202912A1); also called BM; Siglec15-ch5G9
EC50 [1]: 11.3 nM
EC50 [2]: 2.11 nM
EC50 [3]: 19.8 nM
EC50 [4]: 2.93 nM
IC50 [5]: 0.253 nM
EC50 [6]: 15.5 nM

B2: A2A5C7E8 (antibody, V domains shown)
VH: EVQLVQSGAEVKKPGESLRISCKGSGYSFTTYWISWVRQMPGKGLEWMGLIDPSDSYTNYSPSFQGHVTISTDKSISTAYLQWSSLKASDTAMYYCARGGYYGSEEDYWGQGTLVTVSS
VL: EIVLTQSPGTLSLSPGERATLSCRASQSVSSSRLAWFQQKSGQAPRLLIFDASSRATGIPDRFSGSGSGTDFTLTISRLEPEDFAVYYCQQYGSSPRTFGQGTKVEFK
notes: Fully human antibody from transgenic mouse hybridoma; also called A2A5C7E8-1
EC50 [1]: 24.1 nM
EC50 [4]: 0.232 nM
IC50 [5]: 0.0836 nM

B3: A1E10G7H9 (antibody, V domains shown)
VH: QVQLQESGPGLVKPSGTLSLTCAVSGGSISSSNWWHWVRQPPGKGLEWIGEIYHSGNTNYKPSLKSRVTISVDKSKNQFSLKLSSVTAADTAVYYCARDEGNGWSNAFDIWGQGTMVTVSS
VL: ENVLTQSPGTLSLSPGERVTLSCRASQSVSSSYLAWYQQKPGQAPRFLIYGASGGATGIPDRFSGSGSGTDFTLTISRLEPEDFAVYYCQQYGSSPITFGQGTRLEIK
notes: Fully human antibody from transgenic mouse hybridoma
EC50 [1]: 0.182 nM
EC50 [4]: 0.252 nM
